# According to patent US20250340643A1 (AstraZeneca / MedImmune, published 2025):
# T1: CTLA4 on the cells of the reporter gene bioassay (human, UniProt P16410 36-223)
# T1 sequence (looked up): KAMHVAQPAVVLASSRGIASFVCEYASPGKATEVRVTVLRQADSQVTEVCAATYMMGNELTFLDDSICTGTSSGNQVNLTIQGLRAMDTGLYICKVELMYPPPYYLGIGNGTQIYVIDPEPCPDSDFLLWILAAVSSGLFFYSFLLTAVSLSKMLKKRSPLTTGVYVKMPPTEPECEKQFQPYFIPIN
# B1: Tremelimumab, chemical oxidation study (100 ppm H2O2), Control t = 0 (antibody, human IgG2, kappa)
# heavy: QVQLVESGGGVVQPGRSLRLSCAASGFTFSSYGMHWVRQAPGKGLEWVAVIWYDGSNKYYADSVKGRFTISRDNSKNTLYLQMNSLRAEDTAVYYCARDPRGATLYYYYYGMDVWGQGTTVTVSSASTKGPSVFPLAPCSRSTSESTAALGCLVKDYFPEPVTVSWNSGALTSGVHTFPAVLQSSGLYSLSSVVTVPSSNFGTQTYTCNVDHKPSNTKVDKTVERKCCVECPPCPAPPVAGPSVFLFPPKPKDTLMISRTPEVTCVVVDVSHEDPEVQFNWYVDGVEVHNAKTKPREEQFNSTFRVVSVLTVVHQDWLNGKEYKCKVSNKGLPAPIEKTISKTKGQPREPQVYTLPPSREEMTKNQVSLTCLVKGFYPSDIAVEWESNGQPENNYKTTPPMLDSDGSFFLYSKLTVDKSRWQQGNVFSCSVMHEALHNHYTQKSLSLSPGK
# light: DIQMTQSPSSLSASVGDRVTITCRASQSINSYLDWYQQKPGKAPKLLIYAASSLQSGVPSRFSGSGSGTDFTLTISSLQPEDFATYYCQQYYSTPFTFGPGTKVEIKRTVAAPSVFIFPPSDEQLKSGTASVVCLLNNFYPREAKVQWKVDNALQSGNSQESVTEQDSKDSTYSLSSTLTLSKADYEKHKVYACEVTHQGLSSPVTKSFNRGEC
# modifications: oxidation by peptide mapping: Met-256 1.2%, Met-362 0.9%, Met-401 1.4%, Met-432 0.2%
# B2: Tremelimumab incubated with 100 ppm H2O2 for 25 hours (antibody, human IgG2, kappa)
# heavy: B1 heavy
# light: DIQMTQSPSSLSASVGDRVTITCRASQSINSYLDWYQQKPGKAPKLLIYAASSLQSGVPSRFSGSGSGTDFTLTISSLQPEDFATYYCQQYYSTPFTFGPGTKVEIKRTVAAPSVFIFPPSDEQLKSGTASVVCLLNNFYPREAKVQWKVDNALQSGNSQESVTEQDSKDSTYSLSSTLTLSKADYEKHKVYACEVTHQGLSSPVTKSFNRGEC
# modifications: oxidation by peptide mapping: Met-256 35.5%, Met-362 9.7%, Met-401 28.7%, Met-432 7.8%
# B3: Tremelimumab incubated with 100 ppm H2O2 for 3 days (antibody, human IgG2, kappa)
# heavy: B1 heavy
# light: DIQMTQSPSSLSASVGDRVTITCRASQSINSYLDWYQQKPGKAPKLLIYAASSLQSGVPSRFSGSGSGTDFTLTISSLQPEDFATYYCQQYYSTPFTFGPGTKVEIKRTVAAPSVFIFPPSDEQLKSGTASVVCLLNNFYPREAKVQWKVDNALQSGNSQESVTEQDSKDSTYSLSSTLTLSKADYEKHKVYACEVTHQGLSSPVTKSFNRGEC
# modifications: oxidation by peptide mapping: Met-256 68.5%, Met-362 26.5%, Met-401 55.2%, Met-432 42.1%
# B4: Tremelimumab incubated with 100 ppm H2O2 for 2 days (antibody, human IgG2, kappa)
# heavy: B1 heavy
# light: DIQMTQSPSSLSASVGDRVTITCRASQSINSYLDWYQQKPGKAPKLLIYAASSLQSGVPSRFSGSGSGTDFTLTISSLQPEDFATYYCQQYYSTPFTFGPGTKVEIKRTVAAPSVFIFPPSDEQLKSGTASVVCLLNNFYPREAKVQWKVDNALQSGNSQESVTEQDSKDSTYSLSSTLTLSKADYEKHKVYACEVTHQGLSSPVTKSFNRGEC
# modifications: oxidation by peptide mapping: Met-256 55.8%, Met-362 17.8%, Met-401 44.6%, Met-432 20.7%
# B5: Tremelimumab incubated with 100 ppm H2O2 for 8 hours (antibody, human IgG2, kappa)
# heavy: B1 heavy
# light: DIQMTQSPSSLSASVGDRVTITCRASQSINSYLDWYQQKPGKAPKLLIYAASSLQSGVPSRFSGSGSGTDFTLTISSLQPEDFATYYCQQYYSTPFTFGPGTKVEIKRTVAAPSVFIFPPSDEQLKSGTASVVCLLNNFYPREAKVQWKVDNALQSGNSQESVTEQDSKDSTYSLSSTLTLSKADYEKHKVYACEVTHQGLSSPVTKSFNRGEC
# modifications: oxidation by peptide mapping: Met-256 13.4%, Met-362 3.9%, Met-401 13.3%, Met-432 2.4%
# B6: Tremelimumab incubated with 100 ppm H2O2 for 4 days (antibody, human IgG2, kappa)
# heavy: B1 heavy
# light: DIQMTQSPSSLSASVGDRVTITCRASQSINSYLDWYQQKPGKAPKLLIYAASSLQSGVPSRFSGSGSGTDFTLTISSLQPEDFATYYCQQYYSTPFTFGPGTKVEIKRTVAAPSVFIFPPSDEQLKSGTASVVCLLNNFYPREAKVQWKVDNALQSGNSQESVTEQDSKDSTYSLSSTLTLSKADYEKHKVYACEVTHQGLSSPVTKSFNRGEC
# modifications: oxidation by peptide mapping: Met-256 79.8%, Met-362 36.3%, Met-401 63.7%, Met-432 53.0%
# B7: Tremelimumab incubated in PBS at 37° C., week 5 (antibody, human IgG2, kappa, V domains shown)
# VH: QVQLVESGGGVVQPGRSLRLSCAASGFTFSSYGMHWVRQAPGKGLEWVAVIWYDGSNKYYADSVKGRFTISRDNSKNTLYLQMNSLRAEDTAVYYCARDPRGATLYYYYYGMDVWGQGTTVTVSS
# VL: DIQMTQSPSSLSASVGDRVTITCRASQSINSYLDWYQQKPGKAPKLLIYAASSLQSGVPSRFSGSGSGTDFTLTISSLQPEDFATYYCQQYYSTPFTFGPGTKVEIKR
# modifications: Asn-30 deamidated in 44.7% (peptide mapping)
# B8: Tremelimumab incubated in PBS at 37° C., week 2 (antibody, human IgG2, kappa, V domains shown)
# VH: B7 VH
# VL: B7 VL
# modifications: Asn-30 deamidated in 18.5% (peptide mapping)
# B9: Tremelimumab incubated in PBS at 37° C., week 0 (antibody, human IgG2, kappa, V domains shown)
# VH: B7 VH
# VL: B7 VL
# modifications: Asn-30 deamidated in 2.2% (peptide mapping)
# B10: Tremelimumab incubated in human serum at 37° C., week 4 (antibody, human IgG2, kappa, V domains shown)
# VH: B7 VH
# VL: B7 VL
# modifications: Asn-30 deamidated in 34.8% (peptide mapping)
# B11: Tremelimumab incubated in human serum at 37° C., week 1 (antibody, human IgG2, kappa, V domains shown)
# VH: B7 VH
# VL: B7 VL
# modifications: Asn-30 deamidated in 11.1% (peptide mapping)
# B12: Tremelimumab incubated in PBS at 37° C., week 1 (antibody, human IgG2, kappa, V domains shown)
# VH: B7 VH
# VL: B7 VL
# modifications: Asn-30 deamidated in 8.8% (peptide mapping)
# B13: Tremelimumab incubated in PBS at 37° C., week 4 (antibody, human IgG2, kappa, V domains shown)
# VH: B7 VH
# VL: B7 VL
# modifications: Asn-30 deamidated in 37.7% (peptide mapping)
# B14: Tremelimumab incubated in PBS at 37° C., week 3 (antibody, human IgG2, kappa, V domains shown)
# VH: B7 VH
# VL: B7 VL
# modifications: Asn-30 deamidated in 27.0% (peptide mapping)
# B15: Tremelimumab incubated in human serum at 37° C., week 2 (antibody, human IgG2, kappa, V domains shown)
# VH: B7 VH
# VL: B7 VL
# modifications: Asn-30 deamidated in 22.9% (peptide mapping)
# B16: Tremelimumab incubated in human serum at 37° C., week 5 (antibody, human IgG2, kappa, V domains shown)
# VH: B7 VH
# VL: B7 VL
# modifications: Asn-30 deamidated in 37.7% (peptide mapping)
# B17: Tremelimumab incubated in human serum at 37° C., week 0 (antibody, human IgG2, kappa, V domains shown)
# VH: B7 VH
# VL: B7 VL
# modifications: Asn-30 deamidated in 3.4% (peptide mapping)
# B18: Tremelimumab incubated in human serum at 37° C., week 3 (antibody, human IgG2, kappa, V domains shown)
# VH: B7 VH
# VL: B7 VL
# modifications: Asn-30 deamidated in 33.9% (peptide mapping)
# B19: Heat-stressed Tremelimumab (40° C.), month 3 (oxidation study) (antibody, human IgG2, kappa, V domains shown)
# VH: B7 VH
# VL: B7 VL
# modifications: oxidation by peptide mapping: Trp-52 4.5%, Met-256 2.5%, Met-362 3.1%, Met-401 4.3%, Met-432 2.7%
# B20: Heat-stressed Tremelimumab (40° C.), month 2 (oxidation study) (antibody, human IgG2, kappa, V domains shown)
# VH: B7 VH
# VL: B7 VL
# modifications: oxidation by peptide mapping: Trp-52 2.5%, Met-256 2.0%, Met-362 2.6%, Met-401 3.8%, Met-432 2.2%
# B21: Heat-stressed Tremelimumab (40° C.), month 0 (oxidation study) (antibody, human IgG2, kappa, V domains shown)
# VH: B7 VH
# VL: B7 VL
# modifications: oxidation by peptide mapping: Trp-52 1.8%, Met-256 1.3%, Met-362 1.6%, Met-401 1.6%, Met-432 1.2%
# B22: Heat-stressed Tremelimumab (40° C.), month 1 (oxidation study) (antibody, human IgG2, kappa, V domains shown)
# VH: B7 VH
# VL: B7 VL
# modifications: oxidation by peptide mapping: Trp-52 1.6%, Met-256 1.4%, Met-362 2.1%, Met-401 2.4%, Met-432 1.5%
# B23: Tremelimumab, stressed starting material (low pH 2.5-3.0, 45° C., shaking) (antibody, human IgG2, kappa, V domains shown)
# VH: B7 VH
# VL: B7 VL
# B24: Tremelimumab, Prep SEC aggregate fraction (antibody, human IgG2, kappa, V domains shown)
# VH: B7 VH
# VL: B7 VL
# B25: Tremelimumab, Prep SEC monomer fraction (antibody, human IgG2, kappa, V domains shown)
# VH: B7 VH
# VL: B7 VL
# B26: Tremelimumab, cool white light about 2000 lux for 14 days, DP (2R vial, horizontal) (antibody, human IgG2, kappa)
# heavy: B1 heavy
# light: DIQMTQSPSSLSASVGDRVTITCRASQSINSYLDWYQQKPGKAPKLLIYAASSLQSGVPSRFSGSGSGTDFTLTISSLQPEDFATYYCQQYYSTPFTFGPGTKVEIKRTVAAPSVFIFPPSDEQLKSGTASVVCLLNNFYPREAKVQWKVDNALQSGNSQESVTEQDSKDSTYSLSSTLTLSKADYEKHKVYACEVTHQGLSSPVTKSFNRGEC
# modifications: oxidation by peptide mapping: Trp-52 6.4%, Met-256 7.8%, Met-362 2.5%, Met-401 2.7%, Met-432 5.4%
# notes: also called DP (2R vial, horizontal) 14
# B27: Tremelimumab, photo-stress study at 2000 lux, t = 0 control (antibody, human IgG2, kappa)
# heavy: B1 heavy
# light: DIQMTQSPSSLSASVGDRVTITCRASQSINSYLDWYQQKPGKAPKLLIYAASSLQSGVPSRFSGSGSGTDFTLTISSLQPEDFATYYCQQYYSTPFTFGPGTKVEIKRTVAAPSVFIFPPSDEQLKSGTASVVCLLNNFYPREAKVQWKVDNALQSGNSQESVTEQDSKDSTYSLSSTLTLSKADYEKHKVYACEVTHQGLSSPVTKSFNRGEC
# modifications: oxidation by peptide mapping: Trp-52 0.7%, Met-256 3.3%, Met-362 1.4%, Met-401 1.6%, Met-432 1.0%
# B28: Tremelimumab, photo-stressed, DP 1x ICH (antibody, human IgG2, kappa)
# heavy: B1 heavy
# light: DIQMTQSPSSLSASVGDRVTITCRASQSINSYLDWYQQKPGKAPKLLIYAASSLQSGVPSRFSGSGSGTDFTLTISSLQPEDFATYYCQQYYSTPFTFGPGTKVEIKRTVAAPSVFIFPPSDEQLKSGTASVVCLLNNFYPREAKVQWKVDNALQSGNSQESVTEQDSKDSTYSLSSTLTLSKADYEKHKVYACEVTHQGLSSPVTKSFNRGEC
# modifications: oxidation by peptide mapping: Trp-52 10.9%, Met-256 12.1%, Met-362 3.8%, Met-401 4.1%, Met-432 11.9%
# B29: Tremelimumab, cool white light about 2000 lux for 14 days, DP (2R vial vertical) (antibody, human IgG2, kappa)
# heavy: B1 heavy
# light: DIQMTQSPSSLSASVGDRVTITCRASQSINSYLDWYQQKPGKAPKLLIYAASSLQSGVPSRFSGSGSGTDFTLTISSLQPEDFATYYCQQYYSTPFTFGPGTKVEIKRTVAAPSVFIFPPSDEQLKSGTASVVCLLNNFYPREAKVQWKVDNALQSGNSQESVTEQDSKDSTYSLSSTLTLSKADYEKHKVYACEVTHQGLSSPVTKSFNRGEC
# modifications: oxidation by peptide mapping: Trp-52 5.4%, Met-256 7.1%, Met-362 2.2%, Met-401 2.5%, Met-432 4.7%
# B30: Tremelimumab, photo-stress study according to ICH guideline, Dark control (antibody, human IgG2, kappa)
# heavy: B1 heavy
# light: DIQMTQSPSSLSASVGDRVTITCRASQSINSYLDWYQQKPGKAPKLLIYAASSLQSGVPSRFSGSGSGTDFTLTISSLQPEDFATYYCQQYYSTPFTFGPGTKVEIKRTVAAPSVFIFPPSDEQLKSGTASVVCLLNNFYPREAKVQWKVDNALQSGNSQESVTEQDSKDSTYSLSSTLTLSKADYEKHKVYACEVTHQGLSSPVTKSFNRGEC
# modifications: oxidation by peptide mapping: Trp-52 3.3%, Met-256 2.8%, Met-362 1.3%, Met-401 1.3%, Met-432 0.6%
# B31: Tremelimumab, photo-stressed, DP 3x ICH (antibody, human IgG2, kappa)
# heavy: B1 heavy
# light: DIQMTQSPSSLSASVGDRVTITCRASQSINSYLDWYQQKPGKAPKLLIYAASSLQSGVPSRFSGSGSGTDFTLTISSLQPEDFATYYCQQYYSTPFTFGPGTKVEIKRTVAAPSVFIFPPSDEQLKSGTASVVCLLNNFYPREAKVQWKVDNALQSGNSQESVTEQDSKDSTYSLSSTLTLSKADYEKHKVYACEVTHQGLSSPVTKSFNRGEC
# modifications: oxidation by peptide mapping: Trp-52 36.7%, Met-256 41.9%, Met-362 12.8%, Met-401 15.8%, Met-432 34.6%
# B32: Tremelimumab stressed at 40° C., 3 Months (fragment study) (antibody, human IgG2, kappa, V domains shown)
# VH: B7 VH
# VL: B7 VL
# B33: Tremelimumab stressed at 40° C., 2 Months (fragment study) (antibody, human IgG2, kappa, V domains shown)
# VH: B7 VH
# VL: B7 VL
# B34: Tremelimumab stressed at 40° C., 0 Months (fragment study) (antibody, human IgG2, kappa, V domains shown)
# VH: B7 VH
# VL: B7 VL
# Target: T1, CTLA4 on the cells of the reporter gene …
# Assay: cell-based or functional assay
row,Relative Potency (%),Binder
1,100%,B1
2,83%,B2
3,83%,B3
4,88%,B4
5,88%,B5
6,98%,B6

# Target: T1, CTLA4 on the cells of the reporter gene …
# Assay: cell-based or functional assay
# Remark: another data set of the same source
row,Relative Potency (%),Binder
1,76%,B7
2,83%,B8
3,92%,B9
4,76%,B10
5,98%,B11
6,96%,B12
7,76%,B13
8,93%,B14
9,91%,B15
10,80%,B16
11,106%,B17
12,82%,B18

# Target: T1, CTLA4 on the cells of the reporter gene …
# Assay: cell-based or functional assay
# Remark: another data set of the same source
row,Relative Potency (%),Binder
1,98%,B19
2,101%,B20
3,100%,B21
4,112%,B22

# Target: T2, recombinant FcRn (UniProt P55899 24-297; P61769 21-119, limits assumed)
# T2 construct: also called Neonatal Fc Receptor
# Assay: SPR, recombinant FcRn immobilized on the sensor; relative to Reference Standard
# Excerpt: (§1) A surface plasmon resonance binding assay was used to measure FcRn binding. This method is based on the ability of the test sample to bind to recombinant FcRn that has been immobilized on an SPR sensor surface. A reference flow cell was created using the same standard amine coupling procedure without the addition of FcRn.
row,Relative FcRn Binding (%),Binder
1,89%,B1
2,91%,B2
3,28%,B3
4,37%,B4
5,93%,B5
6,24%,B6

# Target: T1, CTLA4 on the cells of the reporter gene …
# Assay: cell-based or functional assay
# Remark: another data set of the same source
row,Relative Potency (%),Binder
1,91%,B23
2,73%,B24
3,98%,B25

# Target: T2, recombinant FcRn
# Assay: SPR, recombinant FcRn immobilized on the sensor; relative to Reference Standard
# Remark: another data set of the same source
# Excerpt: as §1
row,Relative FcRn Binding (%),Binder
1,92%,B26
2,98%,B27
3,78%,B28
4,94%,B29
5,91%,B30
6,41%,B31

# Target: T1, CTLA4 on the cells of the reporter gene …
# Assay: cell-based or functional assay
# Remark: another data set of the same source
row,Relative Potency (%) (reporter gene assay),Binder
1,97%,B32
2,97%,B33
3,95%,B34

# Target: T1, CTLA4 on the cells of the reporter gene …
# Assay: cell-based or functional assay
# Remark: another data set of the same source
row,Relative Potency (%),Binder
1,97%,B26
2,102%,B27
3,87%,B28
4,90%,B29
5,107%,B30
6,59%,B31
